Test results as given in patent publication EP4796128A1, “ANTI-C-MET ANTIBODY-DRUG CONJUGATE COMPRISING CAMPTOTHECIN DERIVATIVE” (Celltrion, Inc., priority 2023, dated 2025).
Where “and” joins values, the source holds several entries; their conditions need not be identical. Equal entries are not always repeated.

Experiments:
Type in all cases: in vivo, BALB/c nude mice
[1] = test system: LU-01-0439 human lung cancer xenograft; assay: LU-01-0439 human lung cancer xenograft (PDX) model; details: 10 mg/kg i.v. QW × 2 weeks
Excerpt: It was aimed to confirm the anticancer effect of the ADC of the present invention from the LU-01-0439 human lung cancer xenograft model of BALB/c nude mice (Zhejiang Vital River Laboratory Animal Technology Co., LTD.).
The lung cancer PDX model of LU-01-0439 was generated by transplanting surgically resected clinical samples into immunodeficient mice and was established as passage 0 (P0). Then, the cells were subcultured through serial transplantation, and the passage after P0 was defined as passage 1 (P1). The tumor recovered from the frozen P2 tumor tissue was designated as FP3, and finally, FP4 tumor tissue was prepared for the experiment.
Mice were randomly assigned to groups of eight each, and tumors were implanted into the mice according to the experimental conditions shown in Table 14 below. Specifically, LU-01-0439 FP4 tumor fragments (20-30 mm^3) were subcutaneously implanted into the right flank of each mouse. Treatment was started on day 24 after tumor transplantation, when the mean tumor volume reached 175 mm^3, and the treatment start date was set as Day 0. This experiment was performed for 35 days.
The tumor size was measured using the same method as in Experimental Example 3-1 above.
(§1) Statistical analysis was performed on the data obtained 35 days after the start of the experiment to determine differences in tumor volume and tumor weight between groups. […] All data were analyzed using SPSS 29.0. p < 0.05 was considered statistically significant.

[2] = test system: Hs746T human gastric cancer xenograft; assay: Hs746T human gastric cancer xenograft model; details: for TGI: Day 13; for T/C: Day 13, tumor volume vs P23 isotype mAb group
Experimental: Hs746T tumor cells (ATCC, Catalog No. HTB-135) were cultured as a monolayer in DMEM medium supplemented with 10% FBS and 1% antibiotic-antimycotic at 37°C in an atmosphere of 5% CO2 in air. Tumor cells (Hs746T) were routinely passaged three times a week by treating with trypsin-EDTA. The cells with exponential growth were harvested and counted for tumor inoculation.
Mice were randomly assigned to groups of six each, and tumor cells were inoculated into the mice according to the experimental conditions shown in Table 9 below. Specifically, Hs746T tumor cells (2 × 10^6 cells/mouse) were subcutaneously inoculated into the right flank of each mouse together with 0.1 mL of PBS containing Matrigel. The teatment was started on day 15 after inoculation, when the average tumor volume reached 197 mm^3, and the date when the treatment started was set as Day 0. This experiment was performed for 27 days.
The experimental endpoints were set when tumor growth stopped or the mice were cured. The size and volume of the tumor were measured twice a week in two and three dimensions using calipers, and these were used to calculate the T/C (tumor volume over control volume) and TGI (tumor growth inhibition) values.
In the T/C values (%) above, T and C represent the average volume of the experimental group and the control group on a specific day, respectively, and the T/C value is an index for the antitumor effect.
The TGI values were calculated using the following equation, where Ti is a mean tumor volume of the treatment group on a specific date, T0 is a mean tumor volume of the treatment group on the first day of treatment, Vi is a mean tumor volume of the vehicle control group on the same day as Ti, and V0 is a mean tumor volume of the vehicle group on the first day of treatment. TGI (%) = [1−(Ti−T0)/(Vi−V0)] × 100 [formula]
All data were analyzed using SPSS 29.0. p < 0.05 was considered statistically significant.

[3] = test system: NCI-H441 human lung cancer xenograft; assay: NCI-H441 human lung cancer xenograft model; details: 3 mg/kg i.v. QW × 2 weeks
Experimental: NCI-H441 tumor cells (ATCC, Catalog No. HTB-174) were maintained in vitro in RPMI 1640 medium supplemented with 10% FBS and 1% antibiotic-antimycotic at 37°C and 5% CO2 in air. Tumor cells NCI-H441 were routinely passaged twice a week by treatment with trypsin-EDTA. The cells with exponential growth were harvested and counted for tumor inoculation.
Mice were randomly assigned to groups of 10 each, and tumor cells were inoculated into the mice according to the experimental conditions shown in Table 19 below. Specifically, NCI-H441 tumor cells (5 × 10^6 cells/mouse) were subcutaneously inoculated into the right flank of each mouse together with 0.2 mL of PBS containing Matrigel (1:1). Treatment was started on day 14 after inoculation, when the mean tumor volume reached 180 mm^3, and the treatment start date was set as day 0. This experiment was performed for 35 days.
as §1

[4] = Day 35, tumor volume vs P23 isotype mAb group
[5] = Day 35, tumor weight vs P23 isotype mAb group

B1: P23-PBX-7016: isotype ADC: anti-influenza A antibody (Navivumab, P23) conjugated with mc-GGFG-PBX-7016; DAR 8 (conjugate, chains of the INN, looked up)
VH: QVQLVQSGAEVKKPGASVKVSCKTSGYSFSTYGVSWVRQAPGQGPEWVGWISAYTGITDYAQKFQGRVTLTTDATTATAFLDLRSLRPDDTATYFCARDKVQGRVEVGSGGRHDYWGQGTLVIVSS
VL: EVVLTQSPGTLALPPGERATLSCRASHRVGSTYIAWYQQKSGQAPRRLIYGASNRATDIPDRFSGSGSGTDFTLTIRRLEPEDSAVYYCQQFSVSPWTFGQGTRVEIK
modifications: mc-GGFG-PBX-7016 payload, DAR 8
- Tumor Volume ([1]; Day 0, mean ± SEM): 175 ± 15 mm^3
- Tumor Volume ([1]; Day 3, mean ± SEM): 209 ± 22 mm^3
- Tumor Volume ([1]; Day 7, mean ± SEM): 238 ± 22 mm^3
- Tumor Volume ([1]; Day 10, mean ± SEM): 247 ± 19 mm^3
- Tumor Volume ([1]; Day 14, mean ± SEM): 217 ± 18 mm^3
- Tumor Volume ([1]; Day 17, mean ± SEM): 217 ± 28 mm^3
- Tumor Volume ([1]; Day 21, mean ± SEM): 205 ± 42 mm^3
- Tumor Volume ([1]; Day 24, mean ± SEM): 263 ± 61 mm^3
- Tumor Volume ([1]; Day 28, mean ± SEM): 393 ± 90 mm^3
- Tumor Volume ([1]; Day 31, mean ± SEM): 536 ± 117 mm^3
- TGI ([1]; Day 35): 64.62%
- Tumor Weight on Day 35 ([1]; Day 35): 0.561 ± 0.117 g
- Tumor Volume ([1]; Day 35, mean ± SEM): 630 ± 137 mm^3
- T/C [1, 4]: 43.11%
- T/C [1, 5]: 42.93%
- Tumor Volume ([2]; 0.3 mg/kg i.v. single dose, Day 0, mean ± SEM): 197 ± 24 mm^3
- Tumor Volume ([2]; 0.3 mg/kg i.v. single dose, Day 3, mean ± SEM): 309 ± 37 mm^3
- Tumor Volume ([2]; 0.3 mg/kg i.v. single dose, Day 6, mean ± SEM): 512 ± 87 mm^3
- Tumor Volume ([2]; 0.3 mg/kg i.v. single dose, Day 10, mean ± SEM): 873 ± 170 mm^3
- TGI ([2]; 0.3 mg/kg i.v. single dose): 26.87%
- T/C ([2]; 0.3 mg/kg i.v. single dose): 76.49%
- Tumor Volume ([2]; 0.3 mg/kg i.v. single dose, Day 20, mean ± SEM): 2149 ± 475 mm^3
- Tumor Volume ([2]; 0.3 mg/kg i.v. single dose, Day 27, mean ± SEM): 2,175 ± 874 (n = 3) mm^3
- Tumor Volume ([2]; 1 mg/kg i.v. single dose, Day 0, mean ± SEM): 197 ± 24 mm^3
- Tumor Volume ([2]; 1 mg/kg i.v. single dose, Day 3, mean ± SEM): 298 ± 36 mm^3
- Tumor Volume ([2]; 1 mg/kg i.v. single dose, Day 6, mean ± SEM): 476 ± 80 mm^3
- Tumor Volume ([2]; 1 mg/kg i.v. single dose, Day 10, mean ± SEM): 807 ± 171 mm^3
- TGI ([2]; 1 mg/kg i.v. single dose): 27.98%
- T/C ([2]; 1 mg/kg i.v. single dose): 75.52%
- Tumor Volume ([2]; 1 mg/kg i.v. single dose, Day 20, mean ± SEM): 2,089 ± 416 mm^3
- Tumor Volume ([2]; 3 mg/kg i.v. single dose, Day 0, mean ± SEM): 197 ± 23 mm^3
- Tumor Volume ([2]; 3 mg/kg i.v. single dose, Day 3, mean ± SEM): 281 ± 55 mm^3
- Tumor Volume ([2]; 3 mg/kg i.v. single dose, Day 6, mean ± SEM): 318 ± 72 mm^3
- Tumor Volume ([2]; 3 mg/kg i.v. single dose, Day 10, mean ± SEM): 308 ± 80 mm^3
- TGI ([2]; 3 mg/kg i.v. single dose): 84.88%
- Tumor Volume ([2]; 3 mg/kg i.v. single dose, Day 13, mean ± SEM): 405 mm^3 and 405 ± 125 mm^3
- T/C ([2]; 3 mg/kg i.v. single dose): 25.71%
- Tumor Volume ([2]; 3 mg/kg i.v. single dose, Day 17, mean ± SEM): 669 ± 192 mm^3
- Tumor Volume ([2]; 3 mg/kg i.v. single dose, Day 20, mean ± SEM): 826 ± 223 mm^3
- Tumor Volume ([3]; Day 0, mean ± SEM): 180 ± 13 mm^3
- Tumor Volume ([3]; Day 4, mean ± SEM): 198 ± 16 mm^3
- Tumor Volume ([3]; Day 7, mean ± SEM): 171 ± 14 mm^3
- Tumor Volume ([3]; Day 11, mean ± SEM): 140 ± 14 mm^3
- Tumor Volume ([3]; Day 14, mean ± SEM): 131 ± 14 mm^3
- Tumor Volume ([3]; Day 18, mean ± SEM): 134 ± 15 mm^3
- Tumor Volume ([3]; Day 21, mean ± SEM): 138 ± 17 mm^3
- Tumor Volume ([3]; Day 25, mean ± SEM): 155 ± 20 mm^3
- Tumor Volume ([3]; Day 28, mean ± SEM): 190 ± 33 mm^3
- Tumor Volume ([3]; Day 32, mean ± SEM): 235 ± 42 mm^3
- TGI ([3]; Day 35): 91.34%
- Tumor Weight on Day 35 ([3]; Day 35): 0.318 ± 0.059 g
- Tumor Volume ([3]; Day 35, mean ± SEM): 303 ± 54 mm^3
- T/C [3, 4]: 19.00%
- T/Cweight [3, 5]: 19.05%
